Measured values published in PMC10397247.
One block for each binder: values may come before it.

How the values were obtained:
Assay in all cases: two-hybrid library CCNG1;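 note: natural log of median RNA to DNA barcode read ratio; higher means stronger binding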
[1] = target: T1, 4H730-bN
T1 chain: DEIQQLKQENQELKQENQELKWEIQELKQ

[2] = target: T2, 4H2931-bN
T2 chain: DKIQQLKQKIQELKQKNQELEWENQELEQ

[3] = target: T3, 4H932-bN
T3 chain: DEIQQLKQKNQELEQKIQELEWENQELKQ

[4] = target: T4, 4H2253-bN
T4 chain: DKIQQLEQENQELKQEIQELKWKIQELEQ

[5] = target: T5, 4H2518-bN
T5 chain: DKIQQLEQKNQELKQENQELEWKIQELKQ

[6] = target: T6, 4H2444-bN
T6 chain: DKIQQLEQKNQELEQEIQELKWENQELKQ

[7] = target: T7, 4H3297-bN
T7 chain: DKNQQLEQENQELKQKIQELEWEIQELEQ

[8] = target: T8, 4H2859-bN
T8 chain: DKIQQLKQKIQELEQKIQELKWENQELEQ

[9] = target: T9, 4H796-bN
T9 chain: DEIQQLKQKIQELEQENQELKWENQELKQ

[10] = target: T10, 4H3041-bN
T10 chain: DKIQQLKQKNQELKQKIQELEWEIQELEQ

[11] = target: T11, 4H2760-bN
T11 chain: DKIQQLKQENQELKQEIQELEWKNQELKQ

[12] = target: T12, 4H3364-bN
T12 chain: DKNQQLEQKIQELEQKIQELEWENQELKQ

[13] = target: T13, 4H949-bN
T13 chain: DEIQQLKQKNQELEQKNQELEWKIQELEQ

[14] = target: T14, 4H349-bN
T14 chain: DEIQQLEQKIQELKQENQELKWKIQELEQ

[15] = target: T15, 4H2233-bN
T15 chain: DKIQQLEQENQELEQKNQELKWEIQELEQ

[16] = target: T16, 4H264-bN
T16 chain: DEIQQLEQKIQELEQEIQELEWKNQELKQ

[17] = target: T17, 4H3381-bN
T17 chain: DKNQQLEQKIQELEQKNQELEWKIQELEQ

[18] = target: T18, 4H235-bN
T18 chain: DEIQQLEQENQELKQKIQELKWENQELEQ

[19] = target: T19, 4H56-bN
T19 chain: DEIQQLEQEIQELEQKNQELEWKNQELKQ

[20] = target: T20, 4H2585-bN
T20 chain: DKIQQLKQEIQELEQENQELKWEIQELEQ

[21] = target: T21, O2-bP
T21 chain: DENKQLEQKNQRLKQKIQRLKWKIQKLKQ

[22] = target: T22, O4-bP
T22 chain: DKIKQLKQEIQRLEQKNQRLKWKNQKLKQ

[23] = target: T23, O12-bP
T23 chain: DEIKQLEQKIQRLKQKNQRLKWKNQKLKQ

[24] = target: T24, O13-bP
T24 chain: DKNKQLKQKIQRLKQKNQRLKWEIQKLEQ

[25] = target: T25, O8-bP
T25 chain: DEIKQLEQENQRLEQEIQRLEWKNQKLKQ

[26] = target: T26, O15-bP
T26 chain: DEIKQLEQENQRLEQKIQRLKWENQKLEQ

[27] = target: T27, O6-bP
T27 chain: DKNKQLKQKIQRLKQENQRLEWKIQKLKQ

[28] = target: T28, O5-bP
T28 chain: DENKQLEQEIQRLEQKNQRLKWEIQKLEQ

[29] = target: T29, O7-bP
T29 chain: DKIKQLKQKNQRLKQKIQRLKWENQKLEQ

[30] = target: T30, O14-bP
T30 chain: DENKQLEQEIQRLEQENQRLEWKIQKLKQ

[31] = target: T31, O3-bP
T31 chain: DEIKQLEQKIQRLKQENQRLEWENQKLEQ

[32] = target: T32, O9-bP
T32 chain: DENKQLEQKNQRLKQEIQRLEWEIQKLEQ

[33] = target: T33, O16-bP
T33 chain: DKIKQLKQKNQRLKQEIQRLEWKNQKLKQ

[34] = target: T34, O8-bS
T34 chain: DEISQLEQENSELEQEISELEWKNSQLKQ

[35] = target: T35, O2-bS
T35 chain: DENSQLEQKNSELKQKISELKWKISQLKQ

[36] = target: T36, O13-bS
T36 chain: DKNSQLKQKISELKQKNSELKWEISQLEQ

[37] = target: T37, O5-bS
T37 chain: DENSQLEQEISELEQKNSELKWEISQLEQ

[38] = target: T38, O12-bS
T38 chain: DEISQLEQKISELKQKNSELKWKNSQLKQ

[39] = target: T39, O3-bS
T39 chain: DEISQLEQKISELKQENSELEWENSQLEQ

[40] = target: T40, O6-bS
T40 chain: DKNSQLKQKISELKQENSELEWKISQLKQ

[41] = target: T41, O4-bS
T41 chain: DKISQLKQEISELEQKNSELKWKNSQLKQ

[42] = target: T42, O9-bS
T42 chain: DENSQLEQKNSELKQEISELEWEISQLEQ

[43] = target: T43, O15-bS
T43 chain: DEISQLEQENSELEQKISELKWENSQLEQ

[44] = target: T44, O14-bS
T44 chain: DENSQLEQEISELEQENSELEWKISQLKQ

[45] = target: T45, O7-bS
T45 chain: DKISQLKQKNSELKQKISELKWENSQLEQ

[46] = target: T46, O16-bS
T46 chain: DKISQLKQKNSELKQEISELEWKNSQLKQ

interaction score [1]: -0.539
interaction score [2]: -0.485
interaction score [3]: -1.19
interaction score [4]: -0.322
interaction score [5]: 1.97
interaction score [6]: -0.713
interaction score [7]: -1.34
interaction score [8]: -0.431
interaction score [9]: -0.624
interaction score [10]: -1.98
interaction score [11]: -0.863
interaction score [12]: -0.324
interaction score [13]: -1.36
interaction score [14]: -0.452
interaction score [15]: -1.12
interaction score [16]: -0.163
interaction score [17]: -0.889
interaction score [18]: -0.762
interaction score [19]: -0.577
interaction score [20]: -2.3
Binder: DKIQQLEQENQELEQKNQELKWEIQELEQ [4H2233-bN]

interaction score [21]: -1.14
interaction score [22]: 0.355
interaction score [23]: -0.0984
interaction score [24]: -0.964
interaction score [25]: -1.25
interaction score [26]: -0.827
interaction score [27]: -1.02
interaction score [28]: -0.621
interaction score [29]: -0.715
interaction score [30]: -0.196
interaction score [31]: -1.45
interaction score [32]: 0.055
interaction score [33]: -0.648
Binder: DEIKQLEQKIQRLKQKNQRLKWKNQKLKQ [O12-bP]

interaction score [34]: -0.862
interaction score [35]: -0.108
interaction score [36]: -2.21
interaction score [37]: -1.66
interaction score [38]: -0.402
interaction score [39]: 0.395
interaction score [40]: -0.702
interaction score [41]: -0.445
interaction score [42]: -0.617
interaction score [43]: -0.445
interaction score [44]: -2.32
interaction score [45]: -0.726
interaction score [46]: -1.04
Binder: DEISQLEQKISELKQKNSELKWKNSQLKQ [O12-bS]
